Our source for the ratio of biotinylation level, experiment versus control BAP-HP1γ + BirA-Tap54α (4 h biotinylation time) values is article PMC8658920.

The experiment concerns the target heterochromatin protein HP1γ (UniProt Q13185). Description: proximity labelling; PUB (proximity utilizing biotinylation): BAP-HP1γ co-expressed with BirA-HP1γ or, in a separate dish, with BirA-Tap54α; 4 h biotinylation time; MRM LC-MS/MS on Agilent nanoHPLC-Chip ion trap, Skyline; ratio of biotinylation level, experiment versus control.

Chain of heterochromatin protein HP1γ, Q13185 1-183 (natural protein; other documents disagree on this pair) (Q13185 whole entry): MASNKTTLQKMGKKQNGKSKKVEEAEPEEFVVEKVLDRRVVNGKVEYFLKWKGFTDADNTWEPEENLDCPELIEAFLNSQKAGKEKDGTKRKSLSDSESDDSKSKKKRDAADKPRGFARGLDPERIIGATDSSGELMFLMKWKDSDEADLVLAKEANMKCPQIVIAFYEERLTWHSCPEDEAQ

“heterochromatin protein HP1γ, Q13185 1-183 (natural protein; other documents disagree on this pair)”: the ratio of biotinylation level, experiment versus control BAP-HP1γ + BirA-Tap54α (4 h biotinylation time) came out at 32.
